Test results reported in US20190359693A1.

How the values were obtained:
[1] = target: hemagglutinin (HA) of influenza A/Brisbane/59/07 (H1N1) (influenza A virus); assay: cell-based or functional assay
[2] = target: hemagglutinin (HA) of influenza A/California/07/09 (H1N1) (influenza A virus); assay: cell-based or functional assay
[3] = target: hemagglutinin (HA) of influenza A/Common Teal/MPF139/07 (H7N7) (influenza A virus); assay: cell-based or functional assay
[4] = target: hemagglutinin (HA) of influenza A/Common Teal/MPH11/08 (H10N3) (influenza A virus); assay: cell-based or functional assay
[5] = target: hemagglutinin (HA) of influenza A/Env/MPK659/09 (H12N5) (influenza A virus); assay: cell-based or functional assay
[6] = target: hemagglutinin (HA) of influenza A/Eurasian Wigeon/MPH571/08 (H8N4) (influenza A virus); assay: cell-based or functional assay
[7] = target: hemagglutinin (HA) of influenza A/HK/466419/09 (H9N2) (influenza A virus); assay: cell-based or functional assay
[8] = target: hemagglutinin (HA) of influenza A/HK/54/98 (H1N1) (influenza A virus); assay: cell-based or functional assay
[9] = target: hemagglutinin (HA) of influenza A/Jiangxi/346/2013 (H10N8) (influenza A virus); assay: cell-based or functional assay
[10] = target: hemagglutinin (HA) of influenza A/Perth/16/09 (H3N2) (influenza A virus); assay: cell-based or functional assay
[11] = target: hemagglutinin (HA) of influenza A/Victoria/210/09 (H3N2) (influenza A virus); assay: cell-based or functional assay
[12] = target: hemagglutinin (HA) of influenza A/WF/HK/MPA892/06 (H4) (influenza A virus); assay: cell-based or functional assay
[13] = target: hemagglutinin (HA) of influenza A/WSN/33 (H1N1) (influenza A virus) (UniProt P03454); assay: cell-based or functional assay
[14] = target: hemagglutinin (HA) of influenza B/Lee/40 (Old) (influenza B virus) (UniProt P03460); assay: cell-based or functional assay
[15] = target: hemagglutinin (HA) of influenza B/Massachusetts/02/12 (Yamagata) (influenza B virus); assay: cell-based or functional assay
[16] = target: recombinant HA of B/Brisbane/60/08 (Victoria) (influenza B virus); assay: biolayer interferometry (Octet), steady-state fit, geometric mean, pH 7.4
[17] = target: recombinant HA of H1N1 A/Brisbane/59/07 (influenza A virus); assay: as above
[18] = target: recombinant HA of H3N2 A/HK/1/68-MA (influenza A virus); assay: as above
[19] = target: recombinant HA of H3N2 A/Wisconsin/67/05 (influenza A virus); assay: as above
[20] = target: recombinant HA of H7N3 A/NIBRG/60 (A/mallard/NL/12/00) (influenza A virus); assay: as above
[21] = target: recombinant HA of H7N9 A/Hangzhou/1/2013 (influenza A virus); assay: as above

**Q.** How did the Average neutralization titers [1] turn out when MD3606 (Fc fusion) was run?
**A.** Its Average neutralization titers is 5.3 nM.

**Q.** And the Average neutralization titers [2]?
**A.** Its Average neutralization titers is 1.8 nM.

**Q.** What about the Average neutralization titers [3] of the same substance?
**A.** The Average neutralization titers was 26.3 nM.

**Q.** What about the Average neutralization titers [4] of the same substance?
**A.** Its Average neutralization titers is 11.3 nM.

**Q.** What about the Average neutralization titers [5] of the same substance?
**A.** Its Average neutralization titers is greater than 1000 nM.

**Q.** What about the Average neutralization titers [6] of the same substance?
**A.** The Average neutralization titers was 3.7 nM.

**Q.** What about the Average neutralization titers [7] of the same substance?
**A.** Its Average neutralization titers is 5.3 nM.

**Q.** What about the Average neutralization titers [8] of the same substance?
**A.** Its Average neutralization titers is 5 nM.

**Q.** And the Average neutralization titers [9]?
**A.** The Average neutralization titers was 18.3 nM.

**Q.** And the Average neutralization titers [10]?
**A.** The Average neutralization titers was 5.7 nM.

**Q.** What about the Average neutralization titers [11] of the same substance?
**A.** The Average neutralization titers was 6.5 nM.

**Q.** What about the Average neutralization titers [12] of the same substance?
**A.** The Average neutralization titers was 3 nM.

**Q.** What about the Average neutralization titers [13] of the same substance?
**A.** Its Average neutralization titers is 2 nM.

**Q.** What about the Average neutralization titers [14] of the same substance?
**A.** The Average neutralization titers was 3.3 nM.

**Q.** What about the Average neutralization titers [15] of the same substance?
**A.** Its Average neutralization titers is 1 nM.

**Q.** And the Kd [16]?
**A.** The Kd was 3.8 nM.

**Q.** And the Kd [17]?
**A.** Its Kd is 2.2 nM.

**Q.** What about the Kd [18] of the same substance?
**A.** Its Kd is 1.4 nM.

**Q.** And the Kd [19]?
**A.** Its Kd is 0.6 nM.

**Q.** What about the Kd [20] of the same substance?
**A.** The Kd was 1.1 nM.

**Q.** What about the Kd [21] of the same substance?
**A.** The Kd was 1.2 nM.
